Assay results as given in article PMC6322289, “The formation and accumulation of protein-networks by physical interactions in the rapid occlusion of laticifer cells in rubber tree undergoing successive mechanical wounding” (BMC Plant Biology, 2019).
Values belong to the binder of their own block, whether it stands above or below them.

Target: T1, β-1,3-glucanase (Hevea brasiliensis (endogenous in latex …, UniProt P52407 37-356))
T1 construct: β-1,3-glucanase of the lutoids (B-serum) of Hevea brasiliensis latex; two bands of about 35.5 and 41 kDa, both recognised by anti-glucanase and identified as β-1,3-glucanase by MALDI TOF MS; The preparation holds two forms (35.5 and 41 kDa); source: purified from B-serum of rubber tree latex (0-65% (NH4)2SO4, CM Sepharose Fast Flow); also unpurified in B-serum
T1 sequence (P52407 37-356): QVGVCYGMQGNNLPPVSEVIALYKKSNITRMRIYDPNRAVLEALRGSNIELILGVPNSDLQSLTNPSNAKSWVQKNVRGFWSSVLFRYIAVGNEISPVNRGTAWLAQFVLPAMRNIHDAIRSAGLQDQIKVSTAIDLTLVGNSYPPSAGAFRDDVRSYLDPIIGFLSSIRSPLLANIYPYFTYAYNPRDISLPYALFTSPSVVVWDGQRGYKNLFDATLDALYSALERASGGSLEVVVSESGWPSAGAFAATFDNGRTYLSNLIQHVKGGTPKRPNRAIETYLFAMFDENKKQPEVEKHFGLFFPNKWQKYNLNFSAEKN
Test: SPR; Biacore 3000, 25 °C; β-1,3-glucanase amine-coupled to a CM5 chip (5000 RU); analytes flowed in HBS-EP pH 7.4 at 30 μL/min; multi-cycle kinetics, 1:1 Langmuir fit; apparent constants
Conditions: both partners purified

Kd: 87.9 µM
B1: hevein (natural protein, UniProt P02877 18-60, looked up)
chain: EQCGRQAGGKLCPNNLCCSQWGWCGSTDEYCSPDHNCQSNCKD
notes: hevein, the N-terminal part split from pro-hevein, Hevea brasiliensis; runs at 10 kDa in Tricine-SDS-PAGE; source: purified from B-serum of rubber tree latex (85-95% (NH4)2SO4, Sephacryl S-200HR); also unpurified in B-serum

Kd: 231 µM
B2: pro-hevein (natural protein, UniProt P02877 18-204, looked up)
chain: EQCGRQAGGKLCPNNLCCSQWGWCGSTDEYCSPDHNCQSNCKDSGEGVGGGSASNVLATYHLYNSQDHGWDLNAASAYCSTWDANKPYSWRSKYGWTAFCGPVGAHGQSSCGKCLSVTNTGTGAKTTVRIVDQCSNGGLDLDVNVFRQLDTDGKGYERGHITVNYQFVDCGDSFNPLFSVMKSSVIN
notes: source: purified from B-serum of rubber tree latex (Sephacryl S-200HR); also unpurified in B-serum
